# Data taken from doi:10.1101/477745.
# Target: Era fused to SB (small bit of luciferase) (S. aureus) (UniProt Q2FGF6)
# Assay: split reporter
# Chain of Era fused to SB (small bit of luciferase) (S. aureus) (Q2FGF6 whole entry, the tested form may be a part): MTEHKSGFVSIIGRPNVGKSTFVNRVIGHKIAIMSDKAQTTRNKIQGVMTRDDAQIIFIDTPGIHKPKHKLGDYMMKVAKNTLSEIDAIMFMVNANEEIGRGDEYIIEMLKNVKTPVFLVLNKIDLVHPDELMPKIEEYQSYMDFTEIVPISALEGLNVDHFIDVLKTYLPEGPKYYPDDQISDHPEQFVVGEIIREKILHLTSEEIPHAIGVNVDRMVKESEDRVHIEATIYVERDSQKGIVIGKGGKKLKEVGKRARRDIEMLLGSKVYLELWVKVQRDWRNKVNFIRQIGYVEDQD
# Chain of YbeY (split luciferase fusion) (natural protein) (A5IT98 whole entry, the tested form may be a part): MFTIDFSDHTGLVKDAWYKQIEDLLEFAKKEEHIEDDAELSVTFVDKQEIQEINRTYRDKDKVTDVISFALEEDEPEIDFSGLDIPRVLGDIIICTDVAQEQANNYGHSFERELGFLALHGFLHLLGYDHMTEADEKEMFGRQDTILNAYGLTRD
substance,measurement,value
YbeY (split luciferase fusion) (natural protein),luminescence relative to the control (x above the control),2
